B1: LRP6E3E4 (protein)
chain: EAFLLFSRRADIRRISLETNNNNVAIPLTGVKEASALDFDVTDNRIYWTDISLKTISRAFMNGSALEHVVEFGLDYPEGMAVDWLGKNLYWADTGTNRIEVSKLDGQHRQVLVWKDLDSPRALALDPAEGFMYWTEWGGKPKIDRAAMDGSERTTLVPNVGRANGLTIDYAKRRLYWTDLDTNLIESSNMLGLNREVIADDLPHPFGLTQYQDYIYWTDWSRRSIERANKTSGQNRTIIQGHLDYVMDILVFHSSRQSGWNECASSNGHCSHLCLAVPVGGFVCGCPAHYSLNADNRTCSAPTTFLLFSQKSAINRMVIDEQQSPDIILPIHSLRNVRAIDYDPLDKQLYWIDSRQNMIRKAQEDGSQGFTVVVSSVPSQNLEIQPYDLSIDIYSRYIYWTCEATNVINVTRLDGRSVGVVLKGEQDRPRAVVVNPEKGYMYFTNLQERSPKIERAALDGTEREVLFFSGLSKPIALALDSRLGKLFWADSDLRRIESSDLSGANRIVLEDSNILQPVGLTVFENWLYWIDKQQQMIEKIDMTGREGRTKVQARIAQLSDIHAVKELNLQEYRQHPCAQDNGGCSHICLVKGDGTTRCSCPMHLVLLQDELSCGEP
B2: F-FGF21ΔN (other)
chain: QRYLYTDDAQQTEAHLEIREDGTVGGAADQSPESLLQLKALKPGVIQILGVKTSRFLCQRPDGALYGSLHFDPEACSFRERLLEDGYNVYQSEAHGLPLHLPGNKSPHRDPAPRGPARFLPLPGLPPALPEPPGILAPQPPDVGSSDPLSMVGGSQGRSPSYES
B3: F-FGF21FL (other)
chain: HPIPDSSPLLQFGGQVRQRYLYTDDAQQTEAHLEIREDGTVGGAADQSPESLLQLKALKPGVIQILGVKTSRFLCQRPDGALYGSLHFDPEACSFRERLLEDGYNVYQSEAHGLPLHLPGNKSPHRDPAPRGPARFLPLPGLPPALPEPPGILAPQPPDVGSSDPLSMVGGSQGRSPSYES

Columns and labels:
Assay in all cases: BLI
L-39F7 = biological target: L-39F7
L-αGFP = biological target: L-αGFP
FZD7 CRD = FZD7 CRD (Homo sapiens)
Human βKlotho = Human βKlotho (human, UniProt Q86Z14 1-996)

Binder | Kd (L-39F7) [nM] | Kd (L-αGFP) [nM] | Kd (FZD7 CRD) [nM] | Kd (Human βKlotho) [nM]
B1 | 6.4 | 9.7 | – | –
B2 | – | – | 82.5 | 11.8
B3 | – | – | 92.3 | 10.1
